To fix the notation:
B1: WT FUS N-terminal low-complexity region (LCRN), aa 1-214 (domain or fragment, human, UniProt P35637 1-214, looked up)
chain: MASNDYTQQATQSYGAYPTQPGQGYSQQSSQPYGQQSYSGYSQSTDTSGYGQSSYSSYGQSQNTGYGTQSTPQGYGSTGGYGSSQSSQSSYGQQSSYPGYGQQPAPSSTSGSYGSSSQSSSYGQPQSGSYSQQPSYGGQQQSYGQQQSYNPPQGYGQQNQYNSSSGGGGGGGGGGNYGQDQSSMSSGGGSGGGYGNQDQSGGGGSGGYGQQDRG
notes: FUS (fused in sarcoma), human, N-terminal low-complexity region, aa 1-214; 15N-labelled for NMR; also called WT FUS LCRN; FUS LCRN
B2: TPR region of OGT (OGT-TPR, aa 2-474) fused to a SUMO tag (domain or fragment, human, UniProt O15294 2-474, looked up)
chain: ASSVGNVADSTEPTKRMLSFQGLAELAHREYQAGDFEAAERHCMQLWRQEPDNTGVLLLLSSIHFQCRRLDRSAHFSTLAIKQNPLLAEAYSNLGNVYKERGQLQEAIEHYRHALRLKPDFIDGYINLAAALVAAGDMEGAVQAYVSALQYNPDLYCVRSDLGNLLKALGRLEEAKACYLKAIETQPNFAVAWSNLGCVFNAQGEIWLAIHHFEKAVTLDPNFLDAYINLGNVLKEARIFDRAVAAYLRALSLSPNHAVVHGNLACVYYEQGLIDLAIDTYRRAIELQPHFPDAYCNLANALKEKGSVAEAEDCYNTALRLCPTHADSLNNLANIKREQGNIEEAVRLYRKALEVFPEFAAAHSNLASVLQQQGKLQEALMHYKEAIRISPTFADAYSNMGNTLKEMQDVQGALQCYTRAIQINPAFADAHSNLASIHKDSGNIPEAIASYRTALKLKPDFPDAYCNLAHCLQ
notes: O-GlcNAc transferase (OGT), human ncOGT (longest isoform, 1-1046, 13 TPR repeats), tetratricopeptide repeat region, residues 2-474; Unlabelled; this was not measured here; also called SUMO-OGT-TPR; SUMO-fused OGT-TPR
B3: Mut-F FUS N-terminal low-complexity region (LCRN), aa 1-214 (domain or fragment, human, UniProt P35637 1-214, looked up)
chain: MASNDYTQQATQSYGAYPTQPGQGYSQQSSTPYAQASYSTYSPSTTTSAYGQSSYSSYGQSQNTGYATTSTPQAYPSTAPYATSPSSQSSYGQQSSYPAYTQQPAPTTTSASYATSSQSSSYGQPQSGSYSQQPSYGGQQQSYGQQQSYNPPQGYGQQNQYNSSSGGGGGGGGGGNYGQDQSSMSSGGGSGGGYGNQDQSGGGGSGGYGQQDRG
notes: FUS (fused in sarcoma), human, N-terminal low-complexity region, aa 1-214, with the combined mutations of Mut-A, Mut-B and Mut-C; 15N-labelled for NMR; also called FUS Mut-F; Mut-F FUS LCRN

Common to all, as to conditions: both partners purified
For assay [1], the target named is T1, TPR region of OGT (OGT-TPR, aa 2-474) not fused to SUMO (human, UniProt O15294 2-474).
T1 construct: O-GlcNAc transferase (OGT), human ncOGT (longest isoform, 1-1046, 13 TPR repeats), tetratricopeptide repeat region, residues 2-474; Unlabelled; this was not measured here; also called OGT-TPR with the SUMO tag removed
T1 sequence (looked up): B2 chain
In words: NMR titration; 1H-15N HSQC of 15N-labelled FUS LCRN (WT or Mut-F) without and with OGT-TPR whose SUMO tag was removed; the samples with OGT-TPR phase separated, no quantitative comparison.

The target of assay [2] is B1. The assay is described as follows: NMR titration; 1H-15N HSQC of 20 uM 15N-labelled FUS LCRN (WT or Mut-F) without and with 32 uM unlabelled SUMO-OGT-TPR; 600 MHz, 5 °C, 40 mM KPO4, 125 mM NaCl, 0.5 mM EDTA, 0.5 mM benzamidine, 5 mM DTT, 10% D2O, pH 7.2; peak intensity ratios plus OGT-TPR/apo.
For assay [3], the target named is B3. The description is as above.

For B1, in assay [1], the binding result is listed as “binds”.
For B2, the “average peak intensity ratio (plus OGT-TPR/apo)” value in assay [2] was found to be 0.48; in assay [3], 0.36 ± 0.22.
For B3, the binding result in assay [1] was “binds”.
